Laboratory results: patent US20260049138A1 (Chugai, published 2026)
Numbering of substitutions follows the chain as printed. In names and notes the source's numbering stands.

Molecular target: T1, CD3ε homodimer protein (human, UniProt P07766 23-126, limits assumed)
T1 construct: also called CD3 (CD3ε)
Assay: SPR Biacore T200, CD3ε homodimer on chip;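 note: Light-chain single-residue variant antibodies injected over amine-coupled CD3ε homodimer on a CM4 chip at 25 °C, bound amount divided by that of the GLS3000-containing antibody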
Method: Each one-amino acid altered form constructed, expressed, and purified in the paragraph (6-2) was evaluated using Biacore T200 (GE Healthcare Japan Corp.). An appropriate amount of CD3ε homodimer protein was immobilized onto Sensor chip CM4 (GE Healthcare Japan Corp.) by the amine coupling method. Then, the antibody having an appropriate concentration was injected thereto as an analyte and allowed to interact with the CD3ε homodimer protein on the sensor chip. Then, the sensor chip was regenerated by the injection of 10 mmol/L glycine-HCl (pH 1.5). The assay was conducted at 25° C., and HBS-EP+ (GE Healthcare Japan Corp.) was used as a running buffer. […] Each parameter was calculated using Biacore T200 Evaluation Software (GE Healthcare Japan Corp.).
Specifically, when the amount of the GLS3000-containing antibody bound was defined as X and the amount of the L chain one-amino acid altered form bound was defined as Y, a value of Z (ratio of amounts bound)=Y/X was used.

T1 sequence (P07766 23-126 limits assumed): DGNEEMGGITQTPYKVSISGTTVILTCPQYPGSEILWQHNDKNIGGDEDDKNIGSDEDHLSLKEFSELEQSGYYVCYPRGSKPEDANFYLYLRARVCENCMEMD

B1: GLS3000 H27dQ one-arm antibody (antibody, human IgG1, kappa, L234A L235A, N297A, name in Kabat numbering)
heavy: QVQLVESGGGVVQPGRSLRLSCAASGFTFSNAWMHWVRQAPGKGLEWVAQIKAKSNNYATYYAESVKGRFTISRDDSKNSLYLQMNSLKTEDTAVYYCRYVHYGAYYGVDAWGQGTTVTVSSASTKGPSVFPLAPSSKSTSGGTAALGCLVKDYFPEPVTVSWNSGALTSGVHTFPAVLQSSGLYSLSSVVTVPSSSLGTQTYICNVNHKPSNTKVDKKVEPKSCDKTHTCPPCPAPEAAGGPSVFLFPPKPKDTLMISRTPEVTCVVVDVSHEDPEVKFNWYVDGVEVHNAKTKPREEQYASTYRVVSVLTVLHQDWLNGKEYKCKVSNKALPAPIEKTISKAKGQPREPQVYTLPPSRCELTKNQVSLSCAVKGFYPSDIAVEWESNGQPENNYKTTPPVLDSDGSFFLVSKLTVDKSRWQQGNVFSCSVMHEALHNHYTQKSLSLSPDYKDDDDK
chain: EPKSSDKTHTCPPCPAPELLGGPSVFLFPPKPKDTLMISRTPEVTCVVVDVSHEDPEVKFNWYVDGVEVHNAKTKPREEQYNSTYRVVSVLTVLHQDWLNGKEYKCKVSNKALPAPIEKTISKAKGQPREPQVCTLPPSRDELTKNQVSLWCLVKGFYPSDIAVEWESNGQPENNYKTTPPVLDSDGSFFLYSKLTVDKSRWQQGNVFSCSVMHEALHNRYTQKSLSLSP
light: DIVMTQSPLSLPVTPGEPASISCRSSQSLVQSNRNTYLHWYQQKPGQAPRLLIYKVSNRFSGVPDRFSGSGSGTDFTLKISRVEAEDVGVYYCGQGTQVPYTFGQGTKLEIKRTVAAPSVFIFPPSDEQLKSGTASVVCLLNNFYPREAKVQWKVDNALQSGNSQESVTEQDSKDSTYSLSSTLTLSKADYEKHKVYACEVTHQGLSSPVTKSFNRGEC
  ratio of amount bound vs unaltered GLS3000: 0.25

B2: GLS3000 H34V one-arm antibody (antibody, human IgG1, kappa, L234A L235A, N297A, name in Kabat numbering)
heavy: B1 heavy
chain: B1 chain
light: B1 light with Q31H, H39V
  ratio of amount bound vs unaltered GLS3000: 0.85

B3: GLS3000 K50A one-arm antibody (antibody, human IgG1, kappa, L234A L235A, N297A, name in Kabat numbering)
heavy: B1 heavy
chain: B1 chain
light: B1 light with Q31H, K55A
  ratio of amount bound vs unaltered GLS3000: 0.23

B4: GLS3000 H34A one-arm antibody (antibody, human IgG1, kappa, L234A L235A, N297A, name in Kabat numbering)
heavy: B1 heavy
chain: B1 chain
light: B1 light with Q31H, H39A
  ratio of amount bound vs unaltered GLS3000: 1.06

B5: GLS3000 H34Q one-arm antibody (antibody, human IgG1, kappa, L234A L235A, N297A, name in Kabat numbering)
heavy: B1 heavy
chain: B1 chain
light: B1 light with Q31H, H39Q
  ratio of amount bound vs unaltered GLS3000: 0.25

B6: GLS3000 H27dY one-arm antibody (antibody, human IgG1, kappa, L234A L235A, N297A, name in Kabat numbering)
heavy: B1 heavy
chain: B1 chain
light: B1 light with Q31Y
  ratio of amount bound vs unaltered GLS3000: 0.64

B7: GLS3000 H27dR one-arm antibody (antibody, human IgG1, kappa, L234A L235A, N297A, name in Kabat numbering)
heavy: B1 heavy
chain: B1 chain
light: B1 light with Q31R
  ratio of amount bound vs unaltered GLS3000: 0.31

B8: GLS3000 H34N one-arm antibody (antibody, human IgG1, kappa, L234A L235A, N297A, name in Kabat numbering)
heavy: B1 heavy
chain: B1 chain
light: B1 light with Q31H, H39N
  ratio of amount bound vs unaltered GLS3000: 0.65

B9: GLS3000 K50P one-arm antibody (antibody, human IgG1, kappa, L234A L235A, N297A, name in Kabat numbering)
heavy: B1 heavy
chain: B1 chain
light: B1 light with Q31H, K55P
  ratio of amount bound vs unaltered GLS3000: 0.3

B10: GLS3000 H34E one-arm antibody (antibody, human IgG1, kappa, L234A L235A, N297A, name in Kabat numbering)
heavy: B1 heavy
chain: B1 chain
light: B1 light with Q31H, H39E
  ratio of amount bound vs unaltered GLS3000: 0.23

B11: GLS3000 K50D one-arm antibody (antibody, human IgG1, kappa, L234A L235A, N297A, name in Kabat numbering)
heavy: B1 heavy
chain: B1 chain
light: B1 light with Q31H, K55D
  ratio of amount bound vs unaltered GLS3000: 0.22

B12: GLS3000 H27dW one-arm antibody (antibody, human IgG1, kappa, L234A L235A, N297A, name in Kabat numbering)
heavy: B1 heavy
chain: B1 chain
light: B1 light with Q31W
  ratio of amount bound vs unaltered GLS3000: 0.39

B13: GLS3000 H34K one-arm antibody (antibody, human IgG1, kappa, L234A L235A, N297A, name in Kabat numbering)
heavy: B1 heavy
chain: B1 chain
light: B1 light with Q31H, H39K
  ratio of amount bound vs unaltered GLS3000: 2.17

B14: GLS3000 H34G one-arm antibody (antibody, human IgG1, kappa, L234A L235A, N297A, name in Kabat numbering)
heavy: B1 heavy
chain: B1 chain
light: B1 light with Q31H, H39G
  ratio of amount bound vs unaltered GLS3000: 1.02

B15: GLS3000 H27dS one-arm antibody (antibody, human IgG1, kappa, L234A L235A, N297A, name in Kabat numbering)
heavy: B1 heavy
chain: B1 chain
light: B1 light with Q31S
  ratio of amount bound vs unaltered GLS3000: 0.32

B16: GLS3000 H34S one-arm antibody (antibody, human IgG1, kappa, L234A L235A, N297A, name in Kabat numbering)
heavy: B1 heavy
chain: B1 chain
light: B1 light with Q31H, H39S
  ratio of amount bound vs unaltered GLS3000: 0.78

B17: GLS3000 K50G one-arm antibody (antibody, human IgG1, kappa, L234A L235A, N297A, name in Kabat numbering)
heavy: B1 heavy
chain: B1 chain
light: B1 light with Q31H, K55G
  ratio of amount bound vs unaltered GLS3000: 0.16

B18: GLS3000 H34F one-arm antibody (antibody, human IgG1, kappa, L234A L235A, N297A, name in Kabat numbering)
heavy: B1 heavy
chain: B1 chain
light: B1 light with Q31H, H39F
  ratio of amount bound vs unaltered GLS3000: 0.27

B19: GLS3000 H34R one-arm antibody (antibody, human IgG1, kappa, L234A L235A, N297A, name in Kabat numbering)
heavy: B1 heavy
chain: B1 chain
light: B1 light with Q31H, H39R
  ratio of amount bound vs unaltered GLS3000: 0.2

B20: GLS3000 H34D one-arm antibody (antibody, human IgG1, kappa, L234A L235A, N297A, name in Kabat numbering)
heavy: B1 heavy
chain: B1 chain
light: B1 light with Q31H, H39D
  ratio of amount bound vs unaltered GLS3000: 0.22

B21: GLS3000 K50Q one-arm antibody (antibody, human IgG1, kappa, L234A L235A, N297A, name in Kabat numbering)
heavy: B1 heavy
chain: B1 chain
light: B1 light with Q31H, K55Q
  ratio of amount bound vs unaltered GLS3000: 0.18

B22: GLS3000 H34Y one-arm antibody (antibody, human IgG1, kappa, L234A L235A, N297A, name in Kabat numbering)
heavy: B1 heavy
chain: B1 chain
light: B1 light with Q31H, H39Y
  ratio of amount bound vs unaltered GLS3000: 0.59

B23: GLS3000 H34I one-arm antibody (antibody, human IgG1, kappa, L234A L235A, N297A, name in Kabat numbering)
heavy: B1 heavy
chain: B1 chain
light: B1 light with Q31H, H39I
  ratio of amount bound vs unaltered GLS3000: 0.65

B24: GLS3000 H34M one-arm antibody (antibody, human IgG1, kappa, L234A L235A, N297A, name in Kabat numbering)
heavy: B1 heavy
chain: B1 chain
light: B1 light with Q31H, H39M
  ratio of amount bound vs unaltered GLS3000: 0.35

B25: GLS3000 H34W one-arm antibody (antibody, human IgG1, kappa, L234A L235A, N297A, name in Kabat numbering)
heavy: B1 heavy
chain: B1 chain
light: B1 light with Q31H, H39W
  ratio of amount bound vs unaltered GLS3000: 0.24

B26: GLS3000 H27dT one-arm antibody (antibody, human IgG1, kappa, L234A L235A, N297A, name in Kabat numbering)
heavy: B1 heavy
chain: B1 chain
light: B1 light with Q31T
  ratio of amount bound vs unaltered GLS3000: 0.29

B27: GLS3000 K50S one-arm antibody (antibody, human IgG1, kappa, L234A L235A, N297A, name in Kabat numbering)
heavy: B1 heavy
chain: B1 chain
light: B1 light with Q31H, K55S
  ratio of amount bound vs unaltered GLS3000: 0.23

B28: GLS3000 H27dV one-arm antibody (antibody, human IgG1, kappa, L234A L235A, N297A, name in Kabat numbering)
heavy: B1 heavy
chain: B1 chain
light: B1 light with Q31V
  ratio of amount bound vs unaltered GLS3000: 0.3

B29: GLS3000 H34L one-arm antibody (antibody, human IgG1, kappa, L234A L235A, N297A, name in Kabat numbering)
heavy: B1 heavy
chain: B1 chain
light: B1 light with Q31H, H39L
  ratio of amount bound vs unaltered GLS3000: 0.59

B30: GLS3000 K50E one-arm antibody (antibody, human IgG1, kappa, L234A L235A, N297A, name in Kabat numbering)
heavy: B1 heavy
chain: B1 chain
light: B1 light with Q31H, K55E
  ratio of amount bound vs unaltered GLS3000: 0.24

B31: GLS3000 K50L one-arm antibody (antibody, human IgG1, kappa, L234A L235A, N297A, name in Kabat numbering)
heavy: B1 heavy
chain: B1 chain
light: B1 light with Q31H, K55L
  ratio of amount bound vs unaltered GLS3000: 0.24

B32: GLS3000 H34T one-arm antibody (antibody, human IgG1, kappa, L234A L235A, N297A, name in Kabat numbering)
heavy: B1 heavy
chain: B1 chain
light: B1 light with Q31H, H39T
  ratio of amount bound vs unaltered GLS3000: 0.89

B33: GLS3000 K50R one-arm antibody (antibody, human IgG1, kappa, L234A L235A, N297A, name in Kabat numbering)
heavy: B1 heavy
chain: B1 chain
light: B1 light with Q31H, K55R
  ratio of amount bound vs unaltered GLS3000: 0.5

B34: GLS3000 H34P one-arm antibody (antibody, human IgG1, kappa, L234A L235A, N297A, name in Kabat numbering)
heavy: B1 heavy
chain: B1 chain
light: B1 light with Q31H, H39P
  ratio of amount bound vs unaltered GLS3000: 0.34
